Measurements as given in KR20210118351A (dated 2021).
Positions count from the first letter of the chain named.

B1: No. 260 항체 (Full IgG) (antibody, V domains shown)
VH: EVQLVESGGGLVQPGRTLRLSCAASGFTFDDYAMHWVRQPPGKGLEWVSGIDWNSGLIGYADAVKGRFTLSRDNAKNSIFLQMNSLRAEDTALYYCVKDMGSTGGYYGMDVWGQGTTVIVSS
VL: not shown
B2: No. 152 항체 (Full IgG) (antibody, V domains shown)
VH: QITLKESGPSLVKPSQTLTLTCTFSGFSLTTSGMGVGWIRQPPGKALEWLALIDWDDNKYYTTSLKTRLTISKDTSKNQVVLTMTNMDPVDTATYYCARIPGFLRYRNRYYYYGMDVWGQGTTVTVSS
VL: ELVLTQPPSVSAAPGQKVTISCSGRSSNIGNNYVSWYQQLPGTAPKLLIYDNNKRPSGIPDRFSGSKSGTSATLGITGLQTGDEADYYCGTWDSSLSAGVFGGGTQLTVL
B3: No. 284 항체 (Full IgG) (antibody, V domains shown)
VH: QVQLVQSGGGLVQPGGSLRLSCAASGVTVSSNYMSWVRQAPGKGLEWVSVIYSGGSTYYADSVKGRFTISRHNSKNTLYLQMNSLRAEDTAVYYCARGHVDIPYGMDVWGQGTTVTVSS
VL: B2 VL with R25S
B4: No. 217 항체 (Full IgG) (antibody, V domains shown)
VH: EVQLVESGGGVVQPGRSLRLSCAASGFTFSRFAMHWVRQAPGKGLEWVAVVSYDGSNNYYADSVKGRFTISRDNSKNTLYLQMNSLRAEDTAVYYCARGDYYGSGSYYNPSPFFDYWGQGTLVTVSS
VL: not shown
B5: No. 230 항체 (Full IgG) (antibody, V domains shown)
VH: B4 VH with E1Q, E6Q, R31N, V51I, N58K, S75F
VL: not shown
B6: No. 218 항체 (Full IgG) (antibody, V domains shown)
VH: B4 VH with E1Q, E6Q, R31S, V51I, Y53F, N58K, R67Q
VL: ELELTQPPSVSGTPGQRVSISCSGSTSNIGSNPVNWFQQLPGTAPKLLIYSNNQRPSGVPNRFSGSKSGTSASLAISGLQSDDEADYYCAAWDDSLNGWVFGGGTKVTVL
B7: No. 270 항체 (Full IgG) (antibody, V domains shown)
VH: QVQLVQSGGGLVQPGGSLRLSCAASGLTVSSNYMTWVRQAPGKGLEWVSVIYSGGSTFYADSVKGRFTISRDNSKNTLYLQMNSLRAEDTAVYYCARDLVVYGMDVWGQGTTVTVSS
VL: ELVLTQSPGTLSLSPGERATLSCRASQSVSSYLAWYQQKPGQAPRLLIYDASNRATGIPARFSGSGSGTDFTLTISSLEPEDFAVYYCQQYGSSPLTFGGGTKVDIK
B8: No. 275 항체 (Full IgG) (antibody, V domains shown)
VH: B7 VH with Q1E, Q6E, L27F
VL: ELVLTQPPSVSVAPGKTARITCGGNNIGSNTVNWYQQLPGTAPKLLIYSNNLRPSGVPDRFSGSKSGTSASLAISGLQSEDEADYYCAAWDDSLNGPVFGGGTKVTVL
B9: No. 274 항체 (Full IgG) (antibody, V domains shown)
VH: B7 VH with Q1E, Q6E, L27F
VL: ELELTQPPSVSGAPGQRVTISCTGSSSNIGAGYDVHWYQQLPGTAPKLLIYGNSNRPSGVPDRFSGSKSGTSASLAITGLQAEDEADYYCQSYDSSLGVVFGGGTKVTVL
B10: No. 271 항체 (Full IgG) (antibody, V domains shown)
VH: B7 VH with Q1E, Q6E, L27F
VL: ELELTQPPSASGTPGQRVTISCSGSSSNIGSNTVNWYQQLPGTAPKLLIYSNNQRPSGVPDRFSGSKSGTSASLAISGLQSEDEADYYCSSYAGSNNLVFGGGTKLTVL
B11: No. 281 항체 (Full IgG) (antibody, V domains shown)
VH: B7 VH with L27I, T35S, F58N, V100I
VL: ELVLTQPPSVSGAPGQRVTISCTGSSSNIGAGYDVHWYQQLPGTAPKLLIYGNSNRPSGVPDRFSGSKSGTSASLAITGLQAEDEADYYCAAWDDSLSGWVFGGGTKVTVL

Target: T1, S protein of SARS-CoV-2 BetaCoV/Korea/KCDC03/2020 (614D, S형) (SARS-CoV-2, UniProt P0DTC2 14-1273)
Test: cell-based or functional assay

| Binder | IC50, PRNT [ng/mL] |
| --- | --- |
| B1 | > 1000 |

Target: S protein of SARS-CoV-2 hCoV-19/South Korea/KUMC17/2020 (614G) (SARS-CoV-2, UniProt P0DTC2 14-1273)
Test: cell-based or functional assay

| Binder | IC50, PRNT [ng/mL] |
| --- | --- |
| B1 | > 1000 |

Target: T1, S protein of SARS-CoV-2 …
Test: cell-based or functional assay
Remark: another data set of the same source

| Binder | IC50, PRNT [ng/mL] |
| --- | --- |
| B2 | 6.2 |
| B3 | 702 |
| B4 | 5950 |
| B5 | 432 |
| B6 | 562 |
| B7 | 152 |
| B8 | 272 |
| B9 | 302 |
| B10 | 1680 |
| B11 | 1430 |
| B1 | 400 |
